Test results as given in patent US20260125649A1, “MEDIUM COMPOSITION AND METHOD FOR CULTURING MESENCHYMAL STEM CELLS” (ACADEMIA SINICA, priority 2018, published 2026).

What was measured:
[1] = test system: MSCs; experiment: Cell cycle progression by flow cytometry with PI staining; format: cell-based, human; details: EpEX, at 18 h; from 6.5% without EpEX
Procedure: Phospho-EGFR (Tyr845) was detected by Western blotting. […] After treatment, cell cycle progression was investigated by flow cytometry with PI staining. Fraction of cells in each phase (G1, S, G2/M) of the cell cycle was evaluated. Cells that expressed EGFR shRNA or shLuc were treated with EpEX for 18 h. After treatment, cell cycle progression was investigated by flow cytometry with PI staining. Fraction of cells in each phase (G1, S, G2/M) of the cell cycle was evaluated. […] The protein expression of cell cycle regulators (cyclin D1, cyclin D2, cyclin E1) and pluripotency factors (Oct4, Sox2, c-Myc, Lin28) was examined by Western blotting. MSCs expressing EGFR shRNA were stimulated by EpEX. After treatment, the protein expression of cell cycle regulators (cyclin D1, cyclin E1, CDK4 and CDK9) and pluripotency factors (Oct4, in Sox2, c-Myc, and Lin 28) was examined by Western blotting. […] After treatment, the gene expression of pluripotency factors (Oct4, Sox2, c-Myc, Lin28 and EpCAM) was examined by qPCR.
After treatment, the protein levels of total STAT3 and phospho-STAT3 (Tyr705) were examined by Western blotting. […] Cell cycle progression was investigated by flow cytometry with PI staining. Fraction of cells in each phase (G1, S, G2/M) of the cell cycle was evaluated. […] Fraction of cells in each phase (G1, S, G2/M) of the cell cycle was evaluated. […]

[2] = test system: Oct4, Sox2, c-Myc and EpCAM; experiment: Flow cytometry of stemness markers in MSCs; format: cell-based, human; details: data not shown
Procedure: Cells were dissociated with 0.25% trypsin-EDTA (1 mM) (Invitrogen) for 3 min, washed with fluorescence-activated cell sorting buffer (FACS buffer, PBS containing 1% fetal bovine serum), fixed in 4% PFA, and then permeabilized with 0.1% Triton X-100 in PBS. Subsequently, cells were stained with Oct4, Sox2 or Nanog antibodies (1:100, ab 107156, Abcam, UK), washed and suspended in FACS buffer, and incubated with secondary antibody (1:200, Jackson ImmunoResearch) for 60 min at room temperature. Flow cytometry analysis was performed with a BD FACSCanto II flow cytometer (BD Biosciences, CA, USA).
We used human bone marrow-derived MSCs to study the effects of EpEX and first investigated whether EpEX promotes cell proliferation of MSCs. […] Next, we examined the effect of EpEX on cell cycle progression by flow cytometry with propidium iodide (PI) staining. […] EpCAM has been reported to enhance cell cycle progression through upregulation of the proto-oncogene c-Myc and cyclin A/E (Munz et al., 2004). Additionally, EpCAM is known to upregulate cyclin D1 via its direct interaction partner, FHL2, and downstream events such as phosphorylation of the retinoblastoma protein, Rb (Chaves-Perez et al., 2013). Therefore, we further asked whether EpEX can function to upregulate the expression of cell cycle regulators and pluripotency markers. […]

B1: EpEX: extracellular domain of human EpCAM, 265 amino acids in length (SEQ ID NO: 2) (protein, listed as Homo sapiens)
chain: MAPPQVLAFGLLLAAATATFAAAQEECVCENYKLAVNCFVNNNRQCQCTSVGAQNTVICSKLAAKCLVMKAEMNGSKLGRRAKPEGALQNNDGLYDPDCDESGLFKAKQCNGTSMCWCVNTAGVRRTDKDTEITCSERVRTYWIIIELKHKAREKPYDSKSLRTALQKEITTRYQLDPKFITSILYENNVITIDLVQNSSQKTQNDVDIADVAYYFEKDVKGESLFHSKKMDLTVNGEQLDLDPGQTLIYYVDEKAPEFSMQGLK
[1]
  percentage of cells in G2/M phase: 29.3%
[2]
  protein levels of the stemness markers Oct4, Sox2, c-Myc and EpCAM: increased
